Measurements as given in PMC3562352.
Like-named read-outs stand apart in the source and are kept apart here.

What was measured:
Test in all cases: fluorescence anisotropy
MntR wild-type [1] = target: T1, MntR wild-type (Bacillus subtilis, UniProt P54512 1-142)
T1 sequence: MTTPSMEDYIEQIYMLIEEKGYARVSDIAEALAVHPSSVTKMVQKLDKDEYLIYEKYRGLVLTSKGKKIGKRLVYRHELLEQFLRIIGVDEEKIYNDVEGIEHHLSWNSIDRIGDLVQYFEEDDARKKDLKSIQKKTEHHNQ

MntR E11K [2] = target: T2, MntR E11K (Bacillus subtilis, UniProt P54512 1-142, E11K)
T2 sequence: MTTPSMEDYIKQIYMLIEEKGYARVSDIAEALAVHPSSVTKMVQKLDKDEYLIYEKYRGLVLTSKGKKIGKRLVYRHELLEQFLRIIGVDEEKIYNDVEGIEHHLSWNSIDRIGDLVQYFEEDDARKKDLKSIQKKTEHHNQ

MntR wild-type [3] = target: T1, MntR wild-type; remark: listed apart in the source
MntR E11K [4] = target: T2, MntR E11K; remark: listed apart in the source

B1: mntH operator 21 bp (dsDNA)
DNA 1: GAGTTTCCTTAAGGCAAATTG
DNA 2: CAATTTGCCTTAAGGAAACTC
Kd (MntR wild-type [1]): 6.5 ± 0.5 nM | Kd (MntR E11K [2]): 2.4 ± 0.1 nM | Kd (MntR wild-type [3]): 5.6 ± 0.8 nM | Kd (MntR E11K [4]): 6.5 ± 1.3 nM
